Results published in PMC11865060, “Novel human single-domain antibodies exert potent anti-tumor activity by targeting EGF-like repeat epitope of EpCAM” (Frontiers in Pharmacology, 2025).

How the values were obtained:
[1] = target: T1, EpCAM on DU145, PC3 and MCF-7 cancer cells (Homo sapiens (DU145, PC3, MCF-7), UniProt P16422); experiment: flow cytometry on cells; cells (1 × 10^6/mL) incubated with the sdAbs at 4°C for 1 h; detection with FITC-conjugated protein A; 293T and 3T3 cells as negative controls; settings: one partner purified
T1 construct: Epithelial cell adhesion molecule (EpCAM), endogenous on the three EpCAM+ human cancer cell lines DU145, PC3 and MCF-7; also called Epithelial cell adhesion molecule; source: endogenous, on DU145, PC3 and MCF-7 cells

[2] = target: T2, EpCAM complete extracellular domain protein (Homo sapiens (assumed), UniProt P16422); experiment: ELISA; 0.2 μg of antigen coated per well at 4°C overnight; purified sdAb at 1 μg/mL, RT 1 h; detection with HRP-conjugated protein A, absorbance at 450 nm; settings: both partners purified
T2 construct: Epithelial cell adhesion molecule (EpCAM), complete extracellular domain, bought; Commercial protein; no catalogue number, limits or tags printed; source: bought: Shanghai Bootech BioSci. and Technol
T2 sequence (P16422 24-265): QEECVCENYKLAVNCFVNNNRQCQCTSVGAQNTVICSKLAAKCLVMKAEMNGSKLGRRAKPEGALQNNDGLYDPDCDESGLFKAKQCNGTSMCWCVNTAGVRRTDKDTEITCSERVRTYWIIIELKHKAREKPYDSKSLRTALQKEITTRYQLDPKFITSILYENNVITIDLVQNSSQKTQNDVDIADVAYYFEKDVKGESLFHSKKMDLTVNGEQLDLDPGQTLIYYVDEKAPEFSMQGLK

T1 sequence (P16422 24-314): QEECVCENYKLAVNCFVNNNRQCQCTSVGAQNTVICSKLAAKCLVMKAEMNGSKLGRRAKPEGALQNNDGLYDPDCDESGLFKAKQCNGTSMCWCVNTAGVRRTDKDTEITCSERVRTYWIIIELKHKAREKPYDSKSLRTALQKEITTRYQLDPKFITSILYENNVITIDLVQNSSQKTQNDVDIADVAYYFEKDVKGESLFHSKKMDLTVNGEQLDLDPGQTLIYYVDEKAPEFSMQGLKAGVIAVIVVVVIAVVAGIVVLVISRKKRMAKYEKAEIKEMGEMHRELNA

| Binder | binding result [1] | binding result [2] |
| --- | --- | --- |
| aEP5A5 (VHH, fully human VH single-domain antibody from a phage library (Source BioScience); Human VH-only sdAb (not camelid), not Fc-fused; cloned into pET-22b by Not I and Nco I sites; also called anti-EpCAM sdAb aEP5A5; source: E. coli BL21 (DE3), purified (Ni-NTA)) VHH: QVQLLESGGGLVQPGGSLRLSCAASGVRFSNEVMAWVRQAPGKGLEWVSGIEMKNGSTYYADSVKGRFTISRDNSKNTLYLQMNSLRAEDTAVYYCASWGHSRRQQSKFNSWGQGTLVTVSS | binds | – |
| aEP3D4 (VHH, fully human VH single-domain antibody from a phage library (Source BioScience); Human VH-only sdAb (not camelid), not Fc-fused; cloned into pET-22b by Not I and Nco I sites; also called anti-EpCAM sdAb aEP3D4; source: E. coli BL21 (DE3), purified (Ni-NTA)) VHH: QVQLLESGGGLVQPGGSLRLSCAASGVKFSNHDMTWVRQAPGKGLEWVSAINSGGGSTYYADSVKGRFTISRDNSKNTLYLQMNSLRAEDTAVYYCARMGRQARVPHHMRFWGQGTLVTVSS | binds | binds |
| aEP3B2 (VHH, fully human VH single-domain antibody from a phage library (Source BioScience); Human VH-only sdAb (not camelid), not Fc-fused; cloned into pET-22b by Not I and Nco I sites; also called anti-EpCAM sdAb aEP3B2; source: E. coli BL21 (DE3), purified (Ni-NTA)) VHH: QVQLLESGGGLVQPGGSLRLSCAASGDRVSYKFMAWVRQAPGKGLEWVSSIRGNDGSTYYADSVKGRFTISRDNSKNTLYLQMNSLRAEDTAVYYCARKGKRHYELPYWGQGTLVTVSS | binds | binds |
| aEP4D11 (VHH, fully human VH single-domain antibody from a phage library (Source BioScience); Human VH-only sdAb (not camelid), not Fc-fused; cloned into pET-22b by Not I and Nco I sites; also called anti-EpCAM sdAb aEP4D11; source: E. coli BL21 (DE3), purified (Ni-NTA)) VHH: QVQLLESGGGLVQPGGSLRLSCAASGVKIIPKSMAWVRQAPGKGLEWVSTIETADGSTYYADSVKGRFTISRDNSKNTLYLQMNSLRAEDTAVYYCASVSRSRTNSLKSWGQGTLVTVSS | binds | binds |
| aEP4G2 (VHH, fully human VH single-domain antibody from a phage library (Source BioScience); Human VH-only sdAb (not camelid), not Fc-fused; cloned into pET-22b by Not I and Nco I sites; also called anti-EpCAM sdAb aEP4G2; source: E. coli BL21 (DE3), purified (Ni-NTA)) VHH: QVQLLESGGGLVQPGGSLRLSCAASGFTFSYNNMAWVRQAPGKGLEWVSAIEGKDGSTYYADSVKGRFTISRDNSKNTLYLQMNSLRAEDTAVYYCARRKGRTEKLSYWGQGTLVTVSS | binds | binds |
